# Measured values reported in the supplement of paper PMC9170038.
# Test system: K4 kissing-loop RNA reporter
# Assay: apparent KD of K4 kissing-loop reporter; higher = weaker reporter binding
# Conditions: Eterna round: R107
# Description: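 RNA-MaP round R107: designed RNA switches with theophylline, tryptophan, arginine or FMN aptamers are transcribed on-chip within common flanks. They are titrated with a labelled K4 kissing-loop RNA reporter in RNA-MaP buffer (100 mM Tris pH 7.5, 80 mM KCl, 4 mM MgCl2), without ligand or with the indicated ligand. Median apparent KD per design.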
# [1] = input ligand: theophylline 20 uM
# [2] = input ligand: tryptophan 2.4 mM
# 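Note: bound reporter read as fluorescence of individual clusters on recovered sequencing chips by microscopy, with normalized cluster intensities fitted with a binding model.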
Sequence,apparent KD of K4 kissing-loop reporter (input ligand: FMN 200 uM),apparent KD of K4 kissing-loop reporter (input ligand: arginine 13.2 mM),apparent KD of K4 kissing-loop reporter (input ligand: none),apparent KD of K4 kissing-loop reporter [1],apparent KD of K4 kissing-loop reporter [2]
CUGAGCCUGACGAAAGUCAGGCUCUGCGAGCGAGGACCGGUACGGCCGCCACUCGGUGCAGUGAUGUUGCAUGGCCGCAAGGCCG [#2 Exclusion - Tryptophan A Attempt #18 (HarryS)],263 nM,289 nM,207 nM,256 nM,262 nM
CUGCAAAAGUCGGCCGCCACUCCGGGCCCUAUAAAUGGGCGCAGUGAUGUUGCGGCUAGGCCUCUGAGGACCGGGACUUUGUAAC [Aratan],190 nM,64.7 nM,87 nM,131 nM,218 nM
CUGUAUCAUAUUGAUACCAGAGAAAGAACCAGUGAUGUUGGAAAAGACGAAUAAAUUAUACUCCCUUGGCAGCGGAAAUGAACAG [Totally accidental],73 nM,85.6 nM,75.8 nM,105 nM,59.9 nM
CUUGGUCUACGAAGGAGCGCCGUGCAGUGAUGUUGCAGUCAGAUCGAGUGAUGUUUCGGGCGGCAGGUAGGUCGCGUGGCCCUUU [Excusion Arginine B GF 26],633 nM,455 nM,613 nM,587 nM,579 nM
GACAGUCGGUGUUAAUGACAGUUACGCGAUACCAGCGAAACAGUACGCCCUUGGCAGCGCAGUGAUGUUGCGCGCCUAGUGUGGU [Esbiceve],99.5 nM,94.8 nM,101 nM,92.5 nM,97.2 nM
GACCUAAGCUAUGAUACCAGUCUGGCACGAAGAAGUGAUGUUUCCCAGCGUUUGUCACUUGACCCUUGGCAGCAUGCGAUCAGCU [theeternabot_sameState_KL_Theo_B_29],197 nM,106 nM,151 nM,165 nM,128 nM
GACGUUGAAGCGGCCGCCACUAGGAAGGGUACGGAGAGUACAUCUCACGGAGAGUGAUGUUCUCAUAGGACCGGGCUCAUAUCAA [theeternabot_sameState_KL_Trp_B_21],308 nM,215 nM,605 nM,238 nM,362 nM
GAGGAUUGAACGGCCGCCACUGCGCGCAGCUGCAAUCGAGUGAUGUUCCAUCAGUUGUCCAGUUCCAGGACCGGGUUCCGAUGCC [theeternabot_exclusion_KL_Trp_B_12],499 nM,245 nM,401 nM,535 nM,471 nM
GAUACGAAGCAGUGAUGUUGCUUAUGAGAAGGAGCGCACGAAAGUGCAGGUAGGUCGCUCAGCCAUGUGGACGAAAACGUCCACA [whbob_SS_Arginine_A_sa111],90.2 nM,109 nM,97.4 nM,126 nM,78.1 nM
GAUGAAUGCGGAAGGAGCGAGUUUUUGGGAGUGAUGUUCCCUGCAUAUGCACGUGGGAAAGCUCAGGUAGGUCGCCGCGCUUGUU [Same State Arginine B GF 28],183 nM,244 nM,324 nM,208 nM,204 nM
GAUGGUGGCAGUGAAGUGAUGUUUCAUGAUACCAGUUUUAUAAGUAACCCUUGGCAGCAUCGUACGCAGCGUAGUGGACAUCACG [theeternabot_exclusion_KL_Theo_A_25],129 nM,128 nM,140 nM,241 nM,149 nM
GAUGUUUGCCGAAGGAGCGAGUAUUCGCCAGUGAUGUUGGUGAGAUAUACACGUAUCAGUGCUCAGGUAGGUCGCGGCGCUUGUU [Same State Arginine B GF 27],123 nM,107 nM,129 nM,135 nM,117 nM
GAUUCUGUUCGAAAGAACGGAAUCUCGGAAGGAGCGAGAGAAAUCUCAGGUAGGUCGCCGAAUUUUUGAUAGUGAUGUUAUCAUU [Arginine A K4 3],432 nM,380 nM,441 nM,393 nM,397 nM
GAUUUAGAGGCGGCCGCCACUAGUGAUGUUAGUGAUGUUUGAUACUGAAUAUAUCUGCGAGUAGAUAGGACCGGGCCAGAUGGAG [plmfmullin],225 nM,154 nM,195 nM,179 nM,182 nM
GAUUUAGAGGCGGCCGCCACUAGUGAUGUUAGUGAUGUUUGAUACUGUAUAUAUCGGCGUGUAGAUAGGACCGGGCCAGAUGGAG [tbqqmullin],281 nM,157 nM,235 nM,229 nM,221 nM
GAUUUAGAGGCGGCCGCCACUAGUGAUGUUAGUGAUGUUUGAUAGGGAAUAUAUCAGCGAGUAGAUAGGACCGGGCCAGAUGGAG [gtggbmullin],248 nM,183 nM,203 nM,189 nM,167 nM
